According to the nanobody polyreactivity screen of Harvey et al. (2022):

Experiment: yeast display, Sf9 membrane polyspecificity reagent, FACS + sequencing; frameworks hold sequencing errors
Method in brief: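 After 36–48 hours of galactose induction, yeast (Saccharomyces cerevisiae BJ5465) displaying a synthetic nanobody library were stained at 4 °C for 1 hour with 10% biotinylated, detergent-solubilized Sf9 membrane reagent. Streptavidin microbeads enriched the stained cells before FACS sorting into low and high (top ~1%) gates on anti-HA and streptavidin fluorescence. Each clone's polyreactivity label reflects its gate of origin.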

Sequence | polyreactivity (PSR sort gate)
QVQLVESGGGLVQAGGSLRLSCAASGSIFHQYVMGWYRQAPGKERELVAAISIRGTRTYYADSVKGRFTISRDNAKNTVYLQMNSLKPEDTAVYYCAVSGGRLQGDYWGQGTQVTVSS | high polyreactivity
QVQLVESGGGLVQAGGSLRLSCAASGRTLIGNAMGWYRQAPGKEREFVAAITRSGGDTYYADSVKGRFTISRDNAKNTVYLQMNSLKPEDTAVYYCAADGQLHMDYWGQGTQVTVSS | high polyreactivity
QVQLVKSGGGLVQAGGSLRLSCAASGRIIDRNAMGWYRQAPGKERELVAAISSSGSTNYADSVKGRFTISRDNAKNTVYLQMNSLKPQDTAVYYCAARWRSVLAAGTRPVSFDYWGQGTQVTVSS | low polyreactivity
QVQLVESGGGLVQAGGSLRLSCAASGFTFYYYAMGWSRQAPGKERELVAAISQNGGRTYYADSVKGRFTISRDNAKNTVYLQMNSLKPEDTAVYYCAKASGYSSYGYWGQGTQVTVSS | high polyreactivity
QVQLVESGGGLVQAGGSLRLSCAASGITLRRNAMGWYRQAPGKERELVAAISKSGGRTYYADSVKGRFTISRDHAKNTVYLQMNSLKPEDTAVYYCAADVPWAASDYWGQGTQVTVSS | high polyreactivity
QVQLEESGGALVQAGGSLRLSGAASVSTFAYYAMGWYRQAPGKERELVAAISWSGGSTYYADSVKGRFTISRDNAKNTVYLLMNSLKPEDTAVYYCNKRNVLDYDYWGQGTQVTVSS | low polyreactivity
QVQLEDSGGCLVQAGGRLRLSCAASGITYGRNTMGRYRQAPGKERELVAAIDSGGNTYADSVKGRFTISRDNAKITVYLQMNSLKPEDTAVYYCAVYGGEFSSYGYWGQGTQVTVSS | low polyreactivity
HVQLVESGGGLVQAGGSLRLSCAASGSIFNSNGMGWYRQATGKERELVAAITGGGSTNYADSVKGRFTISRDNAKNTVYLQMNSLKPEDTAVYYCAARPLRTDWAYYYWGQGTQVTVSS | low polyreactivity
QVQLVESGGGLVQAGGSLRLSCAASGITLTKNAMGWYRQAPGKERELVAGITRGSRTNYADSVKGRFTISRDNAKNTVYLQMNSLKPEDTAVYYCAASYGPYRGPVGGSKMYYWGQGTQVTVSS | high polyreactivity
QVQLVESGGGLVQAGGSLRLSCAASGIIFGRNARGWYRQAPGKEREMVAGITRRGARTYYADSVKGRFTISRDNAKNTVDLQMKSLKPEDTSVYYCATYSVQTDYGRGDYWGQGTKVTVSS | high polyreactivity
QVQLVESGGGLVQAGGSLRLSSAASGSTFGPYPMGWYRPAPGKERELVATISSGGSTYYADSVKGRFTISRDNAKNTVYLQMNSLKPEDTAVYYCAARYWSIYDYWGQGTQVTVSS | low polyreactivity
QVQLVESGGGLVQAGGSLRLSCAASGNIFSYYAMGWYRQAPGKERELVAAISSGGSTYYADSVKGRFTISRDNAKNTVYLQMNSLKPEDTAVYYCATSYFSYFFYEYYSWGQGTQVTVSS | low polyreactivity
QVQLVESGGGLVQAGGSLRLSCAASGITFTGYAMGWYRQAPGKERELVAAISVSTVSTYYADSVKGRFTISRDNAKNTDYLQMTSLKPEDTAVYYCNADATDSYPEKDEHDSWGQGTQVTVSS | low polyreactivity
QVQLVESGGGLVQAGGSLRLSCAASGLIFARYAMGWYRQAPGKERELVAAISSRGGGTYYADSVKGRFTISRDNAKNTVYLQMNSLKPEDTAVYYCNRLRGTPVGLSIGGYYYWGQGTQVTVSS | high polyreactivity
QVQLGESGGGLVQAGGSLRLSCAASGGILGYNAMGWYRQAPGKERELVATINWSGGSTYADSVKGRFTISRDNAKNTVYLQRNSLKPEDTADSYCNAVRKYWRQGTQVTVSS | low polyreactivity
QVHLVESGGGLVQAGGSLRLSCAASGRISKLYAMGWYRQAHGKERDLVAAISSGGSTYYADSVKGRFTISRDNAKNTVYLQMNSLKPEDTAVYYCAVTQVMQYGIPYSYTRDYWGQGTQVTVSS | low polyreactivity
QVQLVESGGGLVQAGGSLRLSCAASGSIFINNMGWYRQAPGKERELVAAISNSGGRTYYADSVKGRFTISRDNAKNTVYLQMNSLKPEDTAVYYCAKKSNRLPYGYWGQGTQVTVSS | high polyreactivity
QGPHVESGGGLVQAGGSLRLSCAASGSTFYNYAMGWYIQAPGKEREFVATISFSGGSTYYADSVKGRFTISRDNAKNTVYLQMNSLKPEETAVYYCAARALTRKATGYYLTDYWGQGTQVTVSS | high polyreactivity
QVQLVESGGGLVQAGGSLRLSCAASGYTFFFNVMGWYRQAPGKERELVAAISYSGGSTNYADSVKGRFTISRDNAKNTVYLQINSLKPEDTAVYYCNARTVSRNGYQDDYWGQGTQVTVSS | low polyreactivity
QVQLVESGGGLVQAGGSLRLSCAASGSIFSYNAMGWYRQAPGKEREFVAAITSSGTRTYYADSVKGRFTISRDNAKNTVYLQMNSLKPEDTAVYYCAAKPSRYGIGFYWGQGTQVTVSS | high polyreactivity
QVQRVESGGGLVQAGASLRLSCAASGSTFDPYAKGWYRQAPGKERELVAAISGRGGSTYYADSVKGRFTISRDNAKNTLYLQMNSLKPEDTADYYCNAEGEYRRDRYDYWGQGTQVTVSS | low polyreactivity
QVQLVESGGGLVQAGGSLRLSCAASGLTFRRYAMGWYRQAPGKERELVAAINSRGGSTYYADSVKGRFTISRDNAKNTVYLQMNSLKPEDTAVYYCATRSFGRMDYWGQGTQVTVSS | high polyreactivity

Sequence | polyreactivity (PSR sort gate)
QVQLVESGGGLVQAGGSLRLSCASSGSTFSRYALGWYRQAPGKERELVAAITSYGGSTYYADSVKGRFTISRDKAKNTFYLQMNSLKPEYTAVYYCAASYQVRYDYWGQGTQVTVSS | high polyreactivity
QVHLVESGGGLVQAGGSHRLSCAASGSIFRYNAMGWYRQAPGKEREFVAIISYSGVRTYYADSVKGRFTISRDNAKNTVYLEMNSLKPEDTAVYYCAADFKQKGHRTRTTYWGQGTQVTVSS | high polyreactivity
QVQIVESGGGLVQAGGSLRLSCAASGSTLSYYGMGWYRQAPGKERELVAAISTGGRTYYADSVKGRFSISRDNATNTVFLQMTSLKPEDTAVYYCNALYVSYVSRYDYWGQGTQVTVSS | high polyreactivity
QVQLVESGGGLVQAGGSLRLSCAASGRTLRWYAMGWYRQAPGKERELVAAITWRGGSTRYADSVKGRFTISRDNAKNTVYLQMNSLKPEDTAVYYCNKYYYRTIEGDYWGQGTQVTVSS | high polyreactivity
QVQLVESGGGLVQAGGSLRLSCAASGSIFFNYAMGWYRQAPGKERELVAAITRSGGSTYYADSVKGRFTISRDNAKNTVYLQMNSLKPEDTAVYYCAARYPFGSLGRYGYWGQGTQVTVSS | high polyreactivity
QVQLVESGGGLLQAGGSLRLSCAASGGTFTWYAMGWYRQAPGKERELVAAISSDGSTYYADSVKGRFTISRDNAKNTVYLQMNSLKPEDTAVYYCAAYSSWGGFDYWGQGTQVTVSS | low polyreactivity
QVQLVESGGGLVQAGGSLRLSCAASGSTFYSYTMGWYRQAPGKERELVAAISRSAGSTYYADSVKGRFTISRDHAKNTVYLQMNSLKPEVTAVYYCAATLGRTYYSRWYGMDYWGQGTQVTVSS | high polyreactivity
QVQLVESGGGVVQAGGSLRLSCAASGSIFNRYAMGWYRQAPGKERELVAATSSGGSTYYADSVKGRFTISRDNAKNTVYLQMNSLKPEDTAVYYCAARSRYRSTPPTYDYWGQGTQVTVSS | low polyreactivity
QVQLVESGAGLVQAGGSLRISCAASGIIFTYYPMGWYRQAPGKERELVASISSSGTSTYYADSVKGRFTISRDNAKNTVYLQLNSLKPEDTAVYYCAKSYWGDNSGFPGTPYDYWGQGTQVTVSS | low polyreactivity
QVQLVESGGGLVQAGGSLRLSCAASGITYTDYDLGCYRQAPGKERELVAAISNGGGSTYYADSVKGRFTISRDNAKNTVYLQMNSLKPEDTGVYYWAAERVPSWWVEWGVAQWDDYWGQGTQVTVSS | low polyreactivity
QVQLVESGGGLVQAGGSLRLSCAASGSTSYGYAMGWYRQAPGKERELVAAISYSGSSTYYADSVKGRFTISRDNAKNTVYLQMNSLKPEDTAVYYCNAKVYPGVGPKHRYDYWGQGTQVTVSS | low polyreactivity
QDQLVESGGGLVQAGGSLRLSCAASGSTSYRYSMGWYRQAPGKEREFVAAISWSGGSTYYADSVKGRFTISRDTAKNTVYLQMNSLKPEDTAVYYCAAVSRRGSARFDYWGQGTQVTVSS | high polyreactivity
QVQLVESGGGLVQAGGSLRLSCDASGLIFGPYTMGWYRQAPGKERELVAAISYGGVSTYYADSVKGRFTISRDNAKNTVYLQMNSLNPEDTAVYYCARGDSTRVIRPSAREYDYWGQGTQVTVSS | low polyreactivity
QVQLVESGGGLLQAGGSLRLSCADSGRTFGGYSMGWYRQATGKERELVAAISKRSGSTYYADSVKGRFTISRVNAKNTVYLQMNSLKPEDTAVYYCNKVWFQRSVQPVEYDYWGQGTQVTVSS | high polyreactivity
QVQLVESGGGLVQAGGSLRLSCAASGRNFGINAMVWFRPAPGKERELVAAISRSGGRTYYADSVKGRFTISRDNAKNTVYLQMISLKPEDTAVYYCAKVPTYWYYRYYYWGQGTEVTVSS | high polyreactivity
QVQLVESGGGLVQAGGSLRLSCAASGRTFLTYVMGWYRQAPWKERELVAAITRGGRTNYADSVKGRFTISRDNAKNTVYLQMNSLKPEDTAVYYCARDDTPRYDYWGQGTQVTVSS | low polyreactivity
QVQLVESGGGLVQAGGSLRLSCAASGYTFIDYAMGWYRQAPGKETELVAAITRGGRTNYADSVKGRFTISRDNAKNTVYLQMNSLKPEDTAVYYCAAALRRRRADFDYWGQGTQVTVSS | high polyreactivity
QVQLVESGGGLVQAGGSLRLSCAASGLIFIFNTMGWYRQAPGKERELVAAISWSGTSTYYADSVKGRFTISRDNANMTVYLLMNSLKPVDTAVYFCNDDLYWFRGFDYWGQGTQVTVSS | high polyreactivity
QVQLQESGGGLVQAGGSLRLSCAASDYIFPYKPKGWYRQAPGKEREFVATIATGGSTNYADSVKGRFTISRDNAKNTVYLQMNSLKPEDTAVYYCAVYGGPAGYLTYRGQGTQVTVSS | high polyreactivity
QVQLVESGGGLVQAGGSLRISCAASGSIYWDNAMGWYRQAPGQESELVAAITSSGDTTYYADSVKGRFTISRDNAKNTVYLQMNSQKPEDTAVYYCAADYYTAYYVTLDYWGQGTQVTVSS | low polyreactivity
QVQLVESGGGLVQAGGSLRLSCAASGSIFPSYAMGWYRQAPGKERELVATISGSGTRTYYADSVKGRFTISRDNAKNTVYVQMNSLKPEDTAVYDCARLPPGDMDYWGQGTQVTVSS | low polyreactivity
